Patent US20190135915A1 (SYNTIMMUNE, published 2019)
Where “and” joins values, the source holds several entries; their conditions need not be identical. Identical values can stand only once.

What was measured:
[1] = target: T1, recombinant human FcRn (Sino Biological Inc. Cat. No. CT009-H08H) (human, UniProt P55899 24-297; P61769 21-119); experiment: competition ELISA, pH 6.0: test IgG4 (from transient HEK per paragraph 152) titrated against fixed biotinylated murine parent antibody on recombinant human FcRn; streptavidin-HRP/TMB, OD450 [top panel]
T1 construct: also called immobilized FcRn
T1 sequence (P55899 24-297 limits assumed, chain 1 of 2): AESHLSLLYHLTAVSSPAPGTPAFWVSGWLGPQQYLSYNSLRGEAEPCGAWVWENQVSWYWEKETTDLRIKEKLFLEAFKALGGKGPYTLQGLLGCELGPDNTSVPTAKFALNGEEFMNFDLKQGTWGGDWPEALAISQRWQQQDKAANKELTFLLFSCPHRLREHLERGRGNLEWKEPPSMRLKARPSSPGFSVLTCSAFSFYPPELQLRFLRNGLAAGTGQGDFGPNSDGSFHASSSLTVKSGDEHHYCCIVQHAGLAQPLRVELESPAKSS
T1 sequence (P61769 21-119 limits assumed, chain 2 of 2): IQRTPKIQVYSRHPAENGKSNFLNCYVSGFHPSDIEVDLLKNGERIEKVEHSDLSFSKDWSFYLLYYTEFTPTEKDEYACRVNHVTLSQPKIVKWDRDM
Protocol: (§1) The IgG4 antibodies were tested for antigen binding in a competition ELISA at pH 6.0 and pH 7.4. A Nunc Immuno MaxiSorp 96 well flat bottom microtitre plate (Fisher, cat. no. DIS-971-030J) was pre-coated with 1 μg/ml of an FcRn antibody specific for an IgG-binding epitope distinct from the albumin-binding region overnight at pH 7.4. The following day, 1 μg/ml recombinant human FcRn (Sino Biological Inc. cat. no. CT009-H08H) diluted in PBS pH 7.4 was added to the wells and incubated for 1 hour at 37° C. After washing the plates 3× with PBST pH 7.4, the plates were blocked with PBSM pH 7.4 for 1 hour at 37° C. From this point onwards, all wash and incubation steps were performed at the chosen assay pH (pH 6.0 or 7.4). […] The reaction was stopped with 3 M HCl, absorbance read at 450 nm on a Dynex Technologies MRX TC II plate reader and the binding curves plotted.
(§2) NS0 produced humanized affinity matured IgGs were used in all assays other than G50_C10/Vκ3), which was purified from transiently expressing HEK cells.

[2] = target: T2, FcRn (analyte in the Biacore T200 study) (human, UniProt P55899 24-297; P61769 21-119, limits assumed); experiment: SPR Biacore T200, antibody amine-coupled to CM5, FcRn analyte, 1:1 model; pH not stated
T2 construct: also called human FcRn
T2 sequence (P55899 24-297 limits assumed, chain 1 of 2): as the sequence (P55899 24-297 limits assumed, chain 1 of 2) above
T2 sequence (P61769 21-119 limits assumed, chain 2 of 2): as the sequence (P61769 21-119 limits assumed, chain 2 of 2) above
Protocol: (§3) Antibodies were immobilized onto a Series S CM5 sensor chip surface using standard amine coupling chemistry and analyte (FcRn) flowed over the surface. A 2-fold dilution range was selected from 50-0.01 nM FcRn. The association phase of FcRn analyte was monitored for 450 seconds, and dissociation was initially measured for either 250 or 2500 seconds, at 40 μl/min Fc1 was a reference channel and was subtracted from other flow cells to correct for non-specific binding. […] Kinetic values are based on a 1:1 binding model (Table 5).

[3] = target: T3, monomeric His-tagged hFcRn (human, UniProt P55899 24-297; P61769 21-119, limits assumed); experiment: SPR Biacore 3000, antibody amine-coupled to CM5, His-tagged hFcRn analyte, pH 6.0, 25 C, 1:1 Langmuir
T3 construct: also called human FcRn; not shown: His tag
T3 sequence (P55899 24-297 limits assumed, chain 1 of 2): as the sequence (P55899 24-297 limits assumed, chain 1 of 2) above
T3 sequence (P61769 21-119 limits assumed, chain 2 of 2): as the sequence (P61769 21-119 limits assumed, chain 2 of 2) above
Protocol: (§4) The coupling was performed by injecting 2 μg/ml of each protein into 10 mM sodium acetate, pH 4.5 (GE Healthcare), using the amine coupling kit (GE Healthcare). HBS-P buffer pH 7.4 (0.01 M HEPES, 0.15 M NaCl, 0.005% surfactant P20) or phosphate buffer pH 6.0 (67 mM phosphate buffer, 0.15 M NaCl, 0.005% Tween 20) were used as running buffer and dilution buffer. […] All SPR experiments were conducted at 25° C. with a flow rate of 40 μl/min Binding data were zero-adjusted, and the reference cell value subtracted. The Langmuir 1:1 ligand binding model provided by the BIAevaluation software (version 4.1) was used to determine the binding kinetics. The closeness of the fit is described by the statistical value χ².

[4] = target: T1, recombinant human FcRn (Sino Biological …); experiment: competition ELISA, pH 7.4; competitor biotinylated parent murine antibody; captured recombinant human FcRn; HEK-expressed IgG4
Protocol: as §1

[5] = target: T1, recombinant human FcRn (Sino Biological …); experiment: competition ELISA, pH 7.4: test IgG4 (from transient HEK per paragraph 152) titrated against fixed biotinylated murine parent antibody on recombinant human FcRn; streptavidin-HRP/TMB, OD450 [top panel]
Protocol: as §1, §2

[6] = target: T3, monomeric His-tagged hFcRn; experiment: SPR Biacore 3000, antibody amine-coupled to CM5, His-tagged hFcRn analyte, pH 6.0, 25 C, 1:1 Langmuir; pH 6.0
Protocol: as §4
(§5) The kinetic rate constants were obtained using a simple first-order (1:1) Langmuir bimolecular interaction model. The kinetic values represent the average of duplicates. The χ² (chi-square) values represent the fit to the binding model used.

[7] = target: T1, recombinant human FcRn (Sino Biological …); experiment: competition ELISA, pH 6.0; competitor biotinylated parent murine antibody; captured recombinant human FcRn; HEK-expressed IgG4
Protocol: as §1

[8] = target: T1, recombinant human FcRn (Sino Biological …); experiment: as above; remark: listed apart in the source
Protocol: as §1, §2

[9] = target: T3, monomeric His-tagged hFcRn; experiment: SPR Biacore 3000, antibody amine-coupled to CM5, His-tagged hFcRn analyte, pH 7.4, 25 C, 1:1 Langmuir
Protocol: as §4, §5

[10] = target: T1, recombinant human FcRn (Sino Biological …); experiment: competition ELISA, pH 7.4; competitor biotinylated parent murine antibody; captured recombinant human FcRn; HEK-expressed IgG4; remark: listed apart in the source
Protocol: as §1, §2

[11] = target: T2, FcRn (analyte in the Biacore T200 study); experiment: SPR Biacore T200, antibody amine-coupled to CM5, FcRn analyte, 1:1 model; chip with the three best variants (repeat run, dissociation 4500 s per paragraph 156); pH not stated
Protocol: as §3

[12] = target: T3, monomeric His-tagged hFcRn; experiment: SPR Biacore 3000, antibody amine-coupled to CM5, His-tagged hFcRn analyte, pH 7.4, 25 C, 1:1 Langmuir; pH 7.4
Protocol: as §4, §5

[13] = target: T2, FcRn (analyte in the Biacore T200 study); experiment: SPR Biacore T200, antibody immobilized, FcRn analyte
Protocol: as §3

B1: G50_C10/Vκ3 (antibody, V domains shown)
VH: EVQLVESGGGLVKPGGSLKLSCAASGFTFSDYGMHWVRQAPGKGLEWVAYISSGSSTIYYADTVKGRFTISRDNAKNTLYLQMNSLRAEDTAMYYCARLESTTAVGDYWGQGTSVTVSS
VL: DIVMTQSPDSLSASVGDRVTITCKASQSVSNDVAWYQQKPGQPPKLLIYYASNRYTGVPDRFSGSGYGTDFTLTISSLQAEDVAVYFCQQDYSSLTFGQGTKLEIK
notes: Bivalent IgG4 with S241P, human kappa; also called SYNT002-16; G50_C10/Vκ3 (HEK)
IC50 (read off the curve) [1]: ~0.5 µg/mL
koff [2]: ≤ 1e-05 s⁻¹ and 2.34e-05 s⁻¹
kon [2]: 399000 M⁻¹ s⁻¹ and 298000 M⁻¹ s⁻¹
Kd [3]: 0.4 nM
koff [3]: 4.7e-05 s⁻¹
Average relative IC50 (relative to humanized parent) [4]: 0.7
IC50 (read off the curve) [5]: ~0.4 µg/mL
kon [6]: 110000 M⁻¹ s⁻¹
Average relative IC50 (relative to humanized parent) [7]: 0.9
Average relative IC50 (relative to humanized parent) [8]: 0.89
Kd [9]: 0.00066 nM
kon [9]: 120000 M⁻¹ s⁻¹
Average relative IC50 (relative to humanized parent) [10]: 0.54
Kd [11]: 0.054 nM
koff [11]: 1.54e-05 s⁻¹
kon [11]: 283000 M⁻¹ s⁻¹
koff [12]: 8e-08 s⁻¹
fold improvement in affinity compared to the humanized parental, on average [13]: 50 fold
